First the molecules themselves.
B1: FUT8 (parent)
chain: NWRYATGGWETVFRPVSETCTDRS
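Further: lentivirally expressed fusions sorted by FACS into six bins by GFP to DsRed ratio, PSI derived from sequencing read proportions per bin multiplied by bin number.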

Variants of B1 are the subject of the series. The series is described as follows: protein stability index of a GFP-peptide fusion (GPS, HEK-293T) (PSI 1-6); higher = more stable. The settings on record: c terminus: a fixed tail appended.
Take NWRYATGGWETVFRYVSETCTDRS [P15Y]: the protein stability index turned out to be 1.27.
The same measure for NWRYATGGWETVFRDVSETCTDRS [P15D]: 3.23; for NWRYATGGWETVFRWVSETCTDRS [P15W]: 1.98.
As for NWRYATGGWETVFRLVSETCTDRS [P15L], the figure is 2.1; as for NWRYATGGWETVFRIVSETCTDRS [P15I], 2.35; as for NWRYATGGWETVFRSVSETCTDRS [P15S], 3.98.
Regarding NWRYATGGWETVFRQVSETCTDRS [P15Q], the protein stability index stood at 2.43.
Turning to NWRYATGGWETVFRRVSETCTDRS [P15R], the protein stability index was 1.68.
For NWRYATGGWETVFRGVSETCTDRS [P15G], the protein stability index is 2.05.
The same measure for NWRYATGGWETVFRKVSETCTDRS [P15K]: 2.03.
For NWRYATGGWETVFRTVSETCTDRS [P15T], the protein stability index turned out to be 1.82.
The same measure for NWRYATGGWETVFGPVSETCTDRS [R14G]: 1.57; for NWRYATGGWETVFVPVSETCTDRS [R14V]: 1.55.
As for NWRYATGGWETVFDPVSETCTDRS [R14D], the figure is 2.4; as for NWRYATGGWETVFPPVSETCTDRS [R14P], 2.69; as for NWRYATGGWETVFSPVSETCTDRS [R14S], 1.01.
With NWRYATGGWETVFNPVSETCTDRS [R14N], the protein stability index is 3.41.
For NWRYATGGWETVFYPVSETCTDRS [R14Y], the protein stability index was determined as 2.1.
As for NWRYATGGWETVFHPVSETCTDRS [R14H], the figure is 1.12; as for NWRYATGGWETVFFPVSETCTDRS [R14F], 1.29.
As for NWRYATGGWETVFWPVSETCTDRS [R14W], the figure is 1.6; as for NWRYATGGWETVFIPVSETCTDRS [R14I], 2.66; as for NWRYATGGWETVFKPVSETCTDRS [R14K], 1.7.
As for NWRYATGGWETVFEPVSETCTDRS [R14E], the figure is 1.83; as for NWRYATGGWETVFQPVSETCTDRS [R14Q], 1.77; as for NWRYATGGWETVFTPVSETCTDRS [R14T], 3.45.
For NWRYATGGWETVFCPVSETCTDRS [R14C], the protein stability index was determined as 3.72.
As for NWRYATGGWETVFMPVSETCTDRS [R14M], the figure is 1.7; as for NWRYATGGWETNFRPVSETCTDRS [V12N], 1.97.
Consider NWRYATGGWETRFRPVSETCTDRS [V12R], for which the protein stability index was found to be 2.08.
The same measure for NWRYATGGWETHFRPVSETCTDRS [V12H]: 2.23; for NWRYATGGWETFFRPVSETCTDRS [V12F]: 1.45; for NWRYATGGWETIFRPVSETCTDRS [V12I]: 2.57.
In the case of NWRYATGGWETTFRPVSETCTDRS [V12T], the protein stability index amounted to 1.69.
The same measure for NWRYATGGWETYFRPVSETCTDRS [V12Y]: 2.73.
As for NWRYATGGWETMFRPVSETCTDRS [V12M], the figure is 2.48; as for NWRYATGGWETQFRPVSETCTDRS [V12Q], 2.56; as for NWRYATGGWETEFRPVSETCTDRS [V12E], 2.23.
For NWRYATGGWETPFRPVSETCTDRS [V12P], the protein stability index is 2.85.
The same measure for NWRYATGGWETSFRPVSETCTDRS [V12S]: 1.97.
As to NWRYATGGWETAFRPVSETCTDRS [V12A], the protein stability index turned out to be 2.46.
As for NWRYATGGWETGFRPVSETCTDRS [V12G], the figure is 1.09; as for NWRYATGGWETKFRPVSETCTDRS [V12K], 3.27; as for NWRYATGGWETWFRPVSETCTDRS [V12W], 1.26.
On to NWRYATGGWETCFRPVSETCTDRS [V12C], for which the protein stability index was found to be 2.
In the case of NWRYATGGWETVFRPNSETCTDRS [V16N], the protein stability index worked out at 1.78.
As for NWRYATGGWETVFRPLSETCTDRS [V16L], the figure is 1.57; as for NWRYATGGWETVFRPKSETCTDRS [V16K], 2.73.
The same measure for NWRYATGGWETVFRPASETCTDRS [V16A]: 1.66; for NWRYATGGWETVFRPWSETCTDRS [V16W]: 2.01; for NWRYATGGWETVFRPHSETCTDRS [V16H]: 2.56.
As for NWRYATGGWETVFRPMSETCTDRS [V16M], the figure is 2.47; as for NWRYATGGWETVFRPQSETCTDRS [V16Q], 2.28.
As for NWRYATGGWETVFRPDSETCTDRS [V16D], the protein stability index was found to be 1.81.
As for NWRYATGGWETVFRPCSETCTDRS [V16C], the figure is 1.06.
The same measure for NWRYATGGWETVFRPISETCTDRS [V16I]: 2.37; for NWRYATGGWETVFRPTSETCTDRS [V16T]: 1.61.
The same measure for NWRYATGGWETVFRPESETCTDRS [V16E]: 1.59; for NWRYATGGWETVFRPFSETCTDRS [V16F]: 1.23.
On to NWRYATGGWETVFRPYSETCTDRS [V16Y], for which the protein stability index is 1.96.
On to NWRYATGGWETVFRPGSETCTDRS [V16G], for which the protein stability index was 3.55.
Take NWRYATGGWETVFRPRSETCTDRS [V16R]: the protein stability index was found to be 1.19.
Regarding NWRYATGGWETVFRPPSETCTDRS [V16P], the protein stability index came out at 1.97.
For the variant NWRYATGGWETVFRPVSWTCTDRS [E18W], the protein stability index turned out to be 2.45.
The same measure for NWRYATGGWETVFRPVSPTCTDRS [E18P]: 2.06; for NWRYATGGWETVFRPVSTTCTDRS [E18T]: 2.15.
The same measure for NWRYATGGWETVFRPVSITCTDRS [E18I]: 2.05; for NWRYATGGWETVFRPVSQTCTDRS [E18Q]: 1.54.
The same measure for NWRYATGGWETVFRPVSGTCTDRS [E18G]: 1.41; for NWRYATGGWETVFRPVSNTCTDRS [E18N]: 1.75.
For the variant NWRYATGGWETVFRPVSLTCTDRS [E18L], the protein stability index is 1.97.
As to NWRYATGGWETVFRPVSVTCTDRS [E18V], the protein stability index turned out to be 2.76.
The same measure for NWRYATGGWETVFRPVSYTCTDRS [E18Y]: 2.18; for NWRYATGGWETVFRPVSFTCTDRS [E18F]: 2.36.
Regarding NWRYATGGWETVFRPVSHTCTDRS [E18H], the protein stability index was 1.51.
As for NWRYATGGWETVFRPVSKTCTDRS [E18K], the figure is 2.27.
With NWRYATGGWETVFRPVSDTCTDRS [E18D], the protein stability index is 2.28.
Regarding NWRYATGGWETVFRPVSRTCTDRS [E18R], the protein stability index stood at 1.8.
The same measure for NWRYATGGWETVFRPVSMTCTDRS [E18M]: 1.4; for NWRYATGGWETVFRPVSETVTDRS [C20V]: 1.88.
The same measure for NWRYATGGWETVFRPVSETFTDRS [C20F]: 1.84; for NWRYATGGWETVFRPVSETDTDRS [C20D]: 2.3; for NWRYATGGWETVFRPVSETYTDRS [C20Y]: 2.24.
The same measure for NWRYATGGWETVFRPVSETATDRS [C20A]: 3.39; for NWRYATGGWETVFRPVSETNTDRS [C20N]: 2.6; for NWRYATGGWETVFRPVSETITDRS [C20I]: 1.63.
As for NWRYATGGWETVFRPVSETPTDRS [C20P], the protein stability index came to 1.81.
As for NWRYATGGWETVFRPVSETTTDRS [C20T], the figure is 1.04.
As for NWRYATGGWETVFRPVSETHTDRS [C20H], the figure is 4.01.
As for NWRYATGGWETVFRPVSETQTDRS [C20Q], the figure is 1.84; as for NWRYATGGWETVFRPVSETSTDRS [C20S], 1.75; as for NWRYATGGWETVFRPVSETWTDRS [C20W], 3.63.
Take NWRYATGGWETVFRPVSETMTDRS [C20M]: the protein stability index was found to be 2.33.
As for NWRYATGGWETVFRPVSETLTDRS [C20L], the figure is 1.44.

Source of the values: the supplement of paper PMC10567573.
